Laboratory results reported in paper PMC9433928.
Read-outs that look alike come from different tables or passages of the source. Values belong to the substance of their own block, whether it stands above or below them.

What was measured:
[1] = biological target: GFP10-tagged constitutively active RHOA L63 mutant (UniProt P61586); assay: split reporter (BiFC, NanoBiT); tripartite split-GFP: GFP10-GTPase mutant and GFP11-tagged partner co-transfected in MRC5 cells stably expressing GFP1-9; fixed 20 h after transfection; percent of reconstituted GFP (rGFP) positive cells by flow cytometry
Sequence of GFP10-tagged constitutively active RHOA L63 mutant (P61586 other isoform, or with tags, fused parts or gaps mutant): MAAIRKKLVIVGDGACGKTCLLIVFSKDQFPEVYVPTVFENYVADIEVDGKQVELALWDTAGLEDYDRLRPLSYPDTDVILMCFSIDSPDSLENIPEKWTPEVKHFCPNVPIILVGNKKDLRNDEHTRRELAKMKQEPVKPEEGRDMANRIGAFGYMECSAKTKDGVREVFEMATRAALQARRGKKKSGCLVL

[2] = biological target: GFP10-tagged constitutively active RHOA L63 mutant (UniProt P61586); assay: as above; remark: listed apart in the source
[3] = biological target: GFP10-RHOA of the triSFP-RHOA reporter cells (UniProt P61586); assay: split reporter (BiFC, NanoBiT); intracellular competition in triSFP-RHOA cells (MRC5_GFP1-9 with doxycycline-induced GFP10-RHOA and GFP11-RBD); mCherry fusions transfected; rGFP fluorescence by flow cytometry in quartiles of mCherry expression
Sequence of GFP10-RHOA of the triSFP-RHOA reporter cells (P61586 whole entry, the tested form may be a part): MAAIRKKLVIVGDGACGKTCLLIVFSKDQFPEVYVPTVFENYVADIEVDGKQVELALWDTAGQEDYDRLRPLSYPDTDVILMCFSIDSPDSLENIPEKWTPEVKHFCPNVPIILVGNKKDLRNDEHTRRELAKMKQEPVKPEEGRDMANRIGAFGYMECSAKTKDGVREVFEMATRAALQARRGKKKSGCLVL

[4] = biological target: GFP10-tagged constitutively active CDC42 L61 mutant (UniProt P60953); assay: split reporter (BiFC, NanoBiT); tripartite split-GFP: GFP10-GTPase mutant and GFP11-tagged partner co-transfected in MRC5 cells stably expressing GFP1-9; fixed 20 h after transfection; percent of reconstituted GFP (rGFP) positive cells by flow cytometry
Sequence of GFP10-tagged constitutively active CDC42 L61 mutant (P60953 other isoform, or with tags, fused parts or gaps mutant): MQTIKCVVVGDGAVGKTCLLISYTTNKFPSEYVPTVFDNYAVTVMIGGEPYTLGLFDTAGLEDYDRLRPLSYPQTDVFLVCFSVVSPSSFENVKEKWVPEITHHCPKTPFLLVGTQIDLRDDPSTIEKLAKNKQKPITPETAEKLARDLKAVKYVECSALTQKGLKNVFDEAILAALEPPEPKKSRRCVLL

[5] = biological target: GFP10-tagged constitutively active RAC1 L61 mutant (UniProt P63000); assay: as above

Sequence of GFP11 tagged PAK-BD (domain or fragment) (Q13153 2-545): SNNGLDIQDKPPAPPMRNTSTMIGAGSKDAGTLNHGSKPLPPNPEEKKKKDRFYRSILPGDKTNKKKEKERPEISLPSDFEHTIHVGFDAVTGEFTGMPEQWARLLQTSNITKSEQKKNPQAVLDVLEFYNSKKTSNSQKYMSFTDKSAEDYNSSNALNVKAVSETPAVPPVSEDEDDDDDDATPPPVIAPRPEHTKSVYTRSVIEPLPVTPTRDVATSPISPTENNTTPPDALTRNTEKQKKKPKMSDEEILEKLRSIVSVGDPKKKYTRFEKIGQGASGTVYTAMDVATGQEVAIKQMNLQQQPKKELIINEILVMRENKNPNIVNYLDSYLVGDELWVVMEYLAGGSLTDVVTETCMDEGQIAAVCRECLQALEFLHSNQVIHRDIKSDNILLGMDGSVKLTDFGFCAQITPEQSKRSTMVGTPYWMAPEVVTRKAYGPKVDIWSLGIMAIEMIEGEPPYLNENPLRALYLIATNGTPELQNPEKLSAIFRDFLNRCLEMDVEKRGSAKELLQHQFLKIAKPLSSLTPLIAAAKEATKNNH
Sequence of RHOTEKIN effector RHO Binding Domain (RBD) fused to a C-terminal GFP11 tag (domain or fragment) (Q8C6B2 whole entry, the tested form may be a part): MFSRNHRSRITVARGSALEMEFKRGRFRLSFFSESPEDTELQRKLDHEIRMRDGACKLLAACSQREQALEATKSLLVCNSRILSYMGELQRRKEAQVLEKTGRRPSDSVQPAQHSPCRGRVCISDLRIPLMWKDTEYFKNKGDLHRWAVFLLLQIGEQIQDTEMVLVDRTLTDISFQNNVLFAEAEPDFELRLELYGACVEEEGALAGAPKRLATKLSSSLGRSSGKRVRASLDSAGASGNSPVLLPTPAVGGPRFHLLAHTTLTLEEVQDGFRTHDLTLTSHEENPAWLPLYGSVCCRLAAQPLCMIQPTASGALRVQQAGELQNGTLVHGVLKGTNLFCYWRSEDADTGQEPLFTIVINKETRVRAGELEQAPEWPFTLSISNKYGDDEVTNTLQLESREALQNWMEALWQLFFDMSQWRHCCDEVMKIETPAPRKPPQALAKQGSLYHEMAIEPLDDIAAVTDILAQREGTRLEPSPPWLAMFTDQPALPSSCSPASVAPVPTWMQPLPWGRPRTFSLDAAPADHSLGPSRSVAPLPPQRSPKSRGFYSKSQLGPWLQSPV

Substance: RHOTEKIN effector RHO Binding Domain (RBD) fused to a C-terminal GFP11 tag (domain or fragment)
percent rGFP positive cells [1]: 25% | percent rGFP positive cells [2]: 28%

percent decrease of rGFP fluorescence (competition with GFP11-RBD) [3]: 20%
Substance: RBD-mCherry (domain or fragment)

percent rGFP positive cells [4]: 11.8% | percent rGFP positive cells [5]: 9.9%
Substance: GFP11 tagged PAK-BD (domain or fragment)
